Positions count from the first letter of the chain named.
T1: human Allergin-1L (expressed on CHO cells) (human, UniProt Q7Z6M3 20-343)
T1 construct: also called MILR1; human Allergin-1L-expressing CHO cell lines
T1 sequence: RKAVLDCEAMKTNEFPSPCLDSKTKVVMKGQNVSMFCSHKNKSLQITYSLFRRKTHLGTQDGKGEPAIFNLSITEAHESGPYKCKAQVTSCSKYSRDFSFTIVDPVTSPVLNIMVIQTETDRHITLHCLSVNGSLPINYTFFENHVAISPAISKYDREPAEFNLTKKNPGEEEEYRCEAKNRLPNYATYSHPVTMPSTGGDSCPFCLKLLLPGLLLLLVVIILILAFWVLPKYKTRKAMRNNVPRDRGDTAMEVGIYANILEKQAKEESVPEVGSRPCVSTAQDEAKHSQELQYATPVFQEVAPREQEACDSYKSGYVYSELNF

B1: humanized scFv Pro1742 (scFv, V domains shown)
VH: EVQLVESGGGLVQPGGSLRLSCAASGFSLNNYFMIWVRQAPGKCLEWIGIITSYHTTYFANWAKGRFTISRDNSKNTVYLQMNSLRAEDTAVYYCAPYDIYGYPTLWGQGTLVTVSS
VL: DIQMTQSPSSLSASVGDRVTITCQASQSIGAYLSWYQQKPGKAPKLLIYEASTLASGVPSRFSGSGSGTDFTLTISSLQPEDFATYYCLGAYGRSSDDGTAFGCGTKVTVLG
notes: A single-chain Fv
B2: humanized scFv Pro1586 (scFv, V domains shown)
VH: EVQLVESGGGLVQPGGSLRLSCAASGIDLSYYAMNWVRQAPGKGLEWIGMIVGGGITFYANWAKGRFTISRDNSKNTVYLQMNSLRAEDTAVYYCAVGSDGGISDFNIWGQGTLVTVSS
VL: DIQMTQSPSSLSASVGDRVTITCQASQSISSYLAWYQQKPGKAPKLLIYRASTLASGVPSRFSGSGSGTDFTLTISSLQPEDFATYYCQQAYSLSNVDNFFGTGTKVTVLG
notes: A single-chain Fv
B3: humanized scFv Pro1588 (scFv, V domains shown)
VH: EVQLVESGGGLVQPGGSLRLSCAASGFSLTIYTITWVRQAPGKGLEWIGTINSYGNTYYSTWAKGRFTISRDNSKNTVYLQMNSLRAEDTAVYYCARGYVDSDWYLNIWGQGTLVTVSS
VL: DIQMTQSPSSLSASVGDRVTITCQSSESVYDNNYLSWYQQKPGKAPKLLIYDASRLASGVPSRFSGSGSGTDFTLTISSLQPEDFATYYCLGGYDSSGWYAAFGTGTKVTVLG
notes: A single-chain Fv
B4: humanized scFv Pro1707 (scFv, V domains shown)
VH: ESQLVESGGGLVQPGGSLRLSCAVSGIDLSSYAVGWVRQAPGKGLEWIGIIGRSGSIYYASWAKGRFTISKDNSKNTVYLQMNSLRAEDTAVYYCARDVDSRPPTGSLWGQGTLVTVSS
VL: DVQMTQSPSSLSASVGDRVTITCQASQNTYSNLDWYQQKPGKAPKLLIYQASKLASGVPSRFSGSGSGTDFTLTISSLQPEDFATYYCQSTSWGSSYVGGFGTGTKVTVLG
notes: A single-chain Fv
B5: humanized scFv Pro1751 (scFv, V domains shown)
VH: EVQLVESGGGLVQPGGSLRLSCAASGIDFSSYYDMCWVRQAPGKCLEWIGCIYTGSVGELYYASWAKGRFTISRDNSKNTVYLQMNSLRAEDTAVYYCARRGSGVDDYYFNLWGQGTLVTVSS
VL: DIQMTQSPSSLSASVGDRVTITCQSSQSVDNNNWLAWYQQKPGKAPKLLIYDASTLASGVPSRFSGSGSGTDFTLTISSLQPEDFATYYCQGTYYTTDWWNSFGCGTKVTVLG
notes: A single-chain Fv
B6: humanized scFv Pro1570 (scFv, V domains shown)
VH: EVQLVESGGGLVQPGGSLRLSCAASGFSLSSYAMIWVRQAPGKGLEWIGFIDTDGHTEYANWAKGRFTISRDNSKNTVYLQMNSLRAEDTAVYYCARDGDHDYWGFNLWGQGTLVTVSS
VL: DIQMTQSPSSLSASVGDRVTITCQASQNIYRNLVWYQQKPGKAPKLLIYGASELESGVPSRFSGSGSGTDFTLTISSLQPEDFATYYCLSTYYISSSDNSFGTGTKVTVLG
notes: A single-chain Fv
B7: humanized scFv Pro1565 (scFv, V domains shown)
VH: EVQLVESGGGLVQPGGSLRLSCAASGFSLSSHAMAWVRQAPGKGLEWIGYIWSGGITEYPSWAKGRFTISRDNSKNTVYLQMNSLRAEDTAVYYCARDVHIYGDIYAFDLWGQGTLVTVSS
VL: DIQMTQSPSSLSASVGDRVTITCQASQDIESYLNWYQQKPGKAPKLLIYYASTLASGVPSRFSGSGSGTDFTLTISSLQPEDFATYYCQQSYSNSDVDKNVFGTGTKVTVLG
notes: A single-chain Fv
B8: humanized scFv Pro1571 (scFv, V domains shown)
VH: EVQLVESGGGLVQPGGSLRLSCAASGFSLSSHAMSWVRQAPGKGLEWIGTISTIDTTYYASWAKGRFTISRDNSKNTVYLQMNSLRAEDTAVYYCARLSELYTTNSYYSRWGQGTLVTVSS
VL: DIQMTQSPSSLSASVGDRVTITCQASESIGSLLAWYQQKPGKAPKLLIYRASTLESGVPSRFSGSGSGTDFTLTISSLQPEDFATYYCQSYHYSSSSSYAAFGTGTKVTVLG
notes: A single-chain Fv
B9: anti-Allergin-1 bispecific antibody #15_h_optv2 clone (bispecific antibody, human IgG1, kappa, L234A L235A, N297A)
heavy: EVQLVESGGGLVQPGGSLRLSCAASGFSLSSHAMSWVRQAPGKGLEWIGTISTIDTTYYASWAKGRFTISRDNSKNTVYLQMNSLRAEDTAVYYCARLSELYTTNSYYSRWGQGTLVTVSSASTKGPSVFPLAPSSKSTSGGTAALGCLVKDYFPEPVTVSWNSGALTSGVHTFPAVLQSSGLYSLSSVVTVPSSSLGTQTYICNVNHKPSNTKVDKRVEPKSCDKTHTCPPCPAPEAAGGPSVFLFPPKPKDTLMISRTPEVTCVVVDVSHEDPEVKFNWYVDGVEVHNAKTKPREEQYASTYRVVSVLTVLHQDWLNGKEYKCKVSNKALPAPIEKTISKAKGQPREPQVYTLPPSREEMTKNQVSLTCLVKGFYPSDIAVEWESNGQPENNYKTTPPVLDSDGSFFLYSKLTVDKSRWQQGNVFSCSVMHEALHNHYTQKSLSLSPGGGGGSGGGGSAIQMTQSPSSLSARVGDRVTITCQSSESVYDNNYLSWYQQKPGKAPKLLIYDASRLASGVPSRFSGSGSGTQFTLTISSLQPEDFATYYCLGGYDSSGWYAAFGTGTKVTVLGGGGGSGGGGSGGGGSGGGGSEVQLVESGGGLVQPGGSLRLSCAASGFSLTIYTITWVRQAPGKGLEWIGTINSYGNTYYSTWAKGRFTISRDNSKNTVYLQMNSLRAEDTAVYYCARGYVDSDWYLNIWGQGTLVTVSS
light: DIQMTQSPSSLSASVGDRVTITCQASESIGSLLAWYQQKPGKAPKLLIYRASTLESGVPSRFSGSGSGTDFTLTISSLQPEDFATYYCQSYHYSSSSSYAAFGQGTKVEIKRTVAAPSVFIFPPSDEQLKSGTASVVCLLNNFYPREAKVQWKVDNALQSGNSQESVTEQDSKDSTYSLSSTLTLSKADYEKHKVYACEVTHQGLSSPVTKSFNRGEC
notes: Morrison form: Fab Pro1571, scFv Pro2281
B10: anti-Allergin-1 bispecific antibody #15_h_opt clone (bispecific antibody, human IgG1, kappa, L234A L235A, N297A)
heavy: B9 heavy with T565C, G637C
light: B9 light
notes: Morrison form: Fab Pro1571, scFv Pro2282
B11: anti-Allergin-1 bispecific antibody #15_h clone (bispecific antibody, human IgG1, kappa, L234A L235A, N297A)
heavy: B9 heavy with A461D, R474S, Q532D
light: B9 light
notes: Morrison form antibody: Fab from Pro1571 (S2-D), scFv from Pro1588 (S1-A) on the heavy chain C-terminus
B12: anti-Allergin-1 bispecific antibody #15p_h_opt clone (bispecific antibody, human IgG1, kappa, L234A L235A, N297A)
heavy: EVQLVESGGGLVQPGGSLRLSCAASGFSLTIYTITWVRQAPGKGLEWIGTINSYGNTYYSTWAKGRFTISRDNSKNTVYLQMNSLRAEDTAVYYCARGYVDSDWYLNIWGQGTLVTVSSASTKGPSVFPLAPSSKSTSGGTAALGCLVKDYFPEPVTVSWNSGALTSGVHTFPAVLQSSGLYSLSSVVTVPSSSLGTQTYICNVNHKPSNTKVDKRVEPKSCDKTHTCPPCPAPEAAGGPSVFLFPPKPKDTLMISRTPEVTCVVVDVSHEDPEVKFNWYVDGVEVHNAKTKPREEQYASTYRVVSVLTVLHQDWLNGKEYKCKVSNKALPAPIEKTISKAKGQPREPQVYTLPPSREEMTKNQVSLTCLVKGFYPSDIAVEWESNGQPENNYKTTPPVLDSDGSFFLYSKLTVDKSRWQQGNVFSCSVMHEALHNHYTQKSLSLSPGGGGGSGGGGSDIQMTQSPSSLSASVGDRVTITCQASESIGSLLAWYQQKPGKAPKLLIYRASTLESGVPSRFSGSGSGTDFTLTISSLQPEDFATYYCQSYHYSSSSSYAAFGCGTKVTVLGGGGGSGGGGSGGGGSGGGGSEVQLVESGGGLVQPGGSLRLSCAASGFSLSSHAMSWVRQAPGKCLEWIGTISTIDTTYYASWAKGRFTISRDNSKNTVYLQMNSLRAEDTAVYYCARLSELYTTNSYYSRWGQGTLVTVSS
light: AIQMTQSPSSLSARVGDRVTITCQSSESVYDNNYLSWYQQKPGKAPKLLIYDASRLASGVPSRFSGSGSGTQFTLTISSLQPEDFATYYCLGGYDSSGWYAAFGQGTKVEIKRTVAAPSVFIFPPSDEQLKSGTASVVCLLNNFYPREAKVQWKVDNALQSGNSQESVTEQDSKDSTYSLSSTLTLSKADYEKHKVYACEVTHQGLSSPVTKSFNRGEC
notes: Morrison form: Fab Pro2281, scFv Pro2285

These binders were tested against T1, human Allergin-1L (expressed on CHO …) (assay: selected on binding by CELISA and SPR (Example 5)).
Description: The purified humanized scFv was analyzed for binding to CHO cells stably expressing human Allergin-1L and monkey Allergin-1, by CELISA, respectively. In detail, the CHO cells were seeded in 96-well plates, to which diluted humanized scFv was added, and which were incubated at 37° C. After washing the CHO cells, to which diluted HRP-labeled Protein L was added, and which were incubated again at 37° C. After washing the CHO cells again, to which HRP chromogenic substrate was added, and which were incubated at room temperature, and then in which absorbance was measured. As a result, the bindings to human Allergin-1L and monkey Allergin-1 were confirmed in several clones.
Furthermore, for each humanized scFv, the binding to Fc-fused human Allergin-1L recombinant protein was analyzed by SPR method. In detail, Fc-fused human Allergin-1L recombinant protein was immobilized on a sensor chip, followed by flowing humanized scFv as an analyte into a flow cell. As a result, the bindings to human Allergin-1L were confirmed in several clones.

Binder	binding result
B1	binds
B2	binds
B3	binds
B4	binds
B5	binds
B6	binds
B7	binds
B8	binds

The binders below were run against T1, human Allergin-1L (expressed on CHO …) (assay: flow cytometry, binding to Allergin-1L).

Binder	EC50
B9	2.41 nM
B10	2.58 nM
B11	2.37 nM
B12	1.49 nM

— patent US20260167698A1 (ONO PHARMACEUTICAL, published 2026)
